Assay results from patent publication US20090324700A1, “METHODS AND COMPOSITIONS FOR THE INHIBITION OF CATHEPSINS” (priority 2003, published 2009).

How the values were obtained:
caspase 8 = molecular target: T1, caspase 8 (Homo sapiens, UniProt Q14790); assay: Protease specificity of Spi2A: caspase 8; assay type: biochemical; settings: FIG. 6B
T1 construct: purchased Calbiochem or Athens Research and Technology
Protocol: Protease specificity of Spi2A. RelA^−/− MEFs were transduced with retrovirus encoding Spi2A with a C-terminal 3×FLAG epitope tag and Spi2A-3×FLAG purified using a method described previously (Cooley et al., 1998). Briefly, cells (3×10^9) were lysed and Spi2A-3×FLAG (75 μg) purified by batch Q-Fast Flow ion-exchange chromatography (Pharmacia Biotech) after elution at 160-220 mM NaCl followed by anti-FLAG antibody columns, performed according to manufacturer's instructions (Sigma-Aldrich). Spi2A-3×FLAG was dialysed into PBS and stored as aliquots at −80° C. until needed.
Proteases were purchases from the manufacturers (Calbiochem or Athens Research and Technology) except granzymes A and B which were purified as described (Hanna et al., 1993) and cathespin V and K, which were purified as described (Bromme et al., 1999; Linnevers et al., 1997). Proteases (20 nM) were incubated in the appropriate assay buffer with Spi2A at 200 nM (at least 10-fold excess of inhibitor to maintain pseudo-first order conditions) for 1 h at 37° C. Control samples included only the enzyme, without the inhibitor. At the end of 1 h protease activity was assayed. […] Substrate hydrolysis was measured in a fluorescence microtiter plate reader (Spectramax Gemini XS, Molecular Devices). Percentage inhibition was calculated from the residual enzyme activity compared to no Spi2A controls. […]

RelA^−/− MEFs = assay: Mitochondrial membrane potential (JC-1), RelA^−/− MEFs; assay type: cell-based, mouse; settings: TNF-α 0.2 ng/ml, CHX 0.1 μg/ml; FIG. 5C
Protocol: Death effector assays. Death effector pathways were induced in […] MEFs by treatment TNF-α (0.2 ng/ml) and CHX (0.1 μg/ml). Assays for executioner proteases (caspases and cathepsin B) were performed on crude cytoplasmic extracts (Stegh et al., 2000). Briefly, MEFs (10^6) were lysed in 10 mM Tris-Cl, pH 7.5, 100 mM NaCl, 1 mM EDTA, 0.01% Triton X-100 (50 μl) for 30 min on ice then centrifuged at 15,000 g for 30 min at 4° C. and the supernatant recovered. Protein concentration was determined by Lowry assay (DC-protein assay kit, Biorad). Western immunoblots were performed on crude cytosolic extracts (50 μg per lane) using standard protocols and probed with the following antibodies: goat anti-mouse Bid antiserum (1 μg/ml; R&D systems), rabbit anti-human caspase 9 antiserum (2 μg/ml; Cell Signaling Technology), rabbit anti-human caspase 3 antiserum (2 μg/ml; Cell Signaling Technology), mouse anti-human caspase 8 monoclonal antibody clone 12F5 (1 μg/ml; Axxora). […]
Mitochondrial membrane potential and ROS production were measured using the fluorescent dyes JC-1 (3 μg/ml) and dihydroethidium (HE) (5 μM)(Molecular Probes) respectively, and flow cytometry according to the manufacturer's instructions.

cathepsin B = molecular target: T2, cathepsin B (Mus musculus, UniProt P10605); assay: Cathepsin B activity in crude cytoplasmic extracts, RelA^−/− MEFs; assay type: cell-based; settings: TNF-α 0.2 ng/ml, CHX 0.1 μg/ml; FIG. 1C, 7A
T2 construct: endogenous in cells; host or cells: RelA-/- or RelA+/+ MEFs (retrovirally transduced with GFP, RelA, Spi2A or antisense Spi2A)
Protocol: Survival Assays. Although RelA^−/− MEFs are markedly more sensitive to TNF-α compared to RelA^+/+ MEFs, low levels of CHX (0.1 μg/ml) were used in the survival assays. This was to suppress any protective activity of constitutively active non-RelA NF-κB molecules that are present in RelA^−/− MEFs (FIG. 4). Thus, RelA^−/− MEFs were treated with CHX and TNF-α (R&D) and the number of live GFP-positive adherent cells was counted by flow cytometry after 16 h, if not indicated otherwise. Live cells were defined as those that excluded propidium iodide (PI-negative) and had the appropriate size, as defined by forward and side scatter characteristics (Coligan et al., 1995). For RelA^+/+ MEFs, TNF-α-cytotoxicity was determined after 16 h with CHX (10 μg/ml), if not indicated otherwise. Cathepsin B activity was inhibited by a 1 h pre-treatment of MEFs with CA-074 Me (30 μM) (Peptide Institute). […] RelA^−/− MEFs were treated with (10-50 μM) sphingosine (Calbiochem) and the number of live GFP-positive adherent cells was counted by flow cytometry after 2 h.
Death effector assays. Death effector pathways were induced in […] MEFs by treatment TNF-α (0.2 ng/ml) and CHX (0.1 μg/ml). […] Protein concentration was determined by Lowry assay (DC-protein assay kit, Biorad). […]
Colorimetric assays for capases were performed in reaction buffer (50 mM HEPES, pH 7.4, 100 mM NaCl, 10 mM DTT, 1 mM EDTA, 10% glycerol, 0.1% CHAPS) at 37° C. on crude cytoplasmic extracts using p-Nitoaniline (pNA)-labeled substrates (Calbiochem) specific for caspases 3 and 7 (Ac-DEVD-pNA), caspase 8 (Ac-IETD-pNA), caspase 9 (Ac-LEHD-pNA), each at 0.2 mM. Specific activity was determined by subtracting the apparent activity detected after 1 h pre-incubation of extract with the pan-caspase inhibitor Z-VAD.fmk at 50 μM (ICN Biomedicals Inc), then normalizing for the amount of protein. […] Specific activity was determined by subtracting the apparent activity detected after 30 min pre-incubation of extract at 37° C. with the cathespin B inhibitor CA-074 Me at 30 μM (Peptide Institute) then normalizing for the amount of protein.

T2 sequence (P10605 80-333): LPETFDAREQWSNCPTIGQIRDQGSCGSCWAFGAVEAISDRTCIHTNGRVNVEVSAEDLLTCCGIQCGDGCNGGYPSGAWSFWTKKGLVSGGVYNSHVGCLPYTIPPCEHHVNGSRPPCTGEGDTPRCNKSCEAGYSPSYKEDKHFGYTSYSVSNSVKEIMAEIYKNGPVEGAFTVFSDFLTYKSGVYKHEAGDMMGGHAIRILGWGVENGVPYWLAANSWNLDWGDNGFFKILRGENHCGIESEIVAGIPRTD
T1 sequence (Q14790 217-374 limits assumed, species assumed): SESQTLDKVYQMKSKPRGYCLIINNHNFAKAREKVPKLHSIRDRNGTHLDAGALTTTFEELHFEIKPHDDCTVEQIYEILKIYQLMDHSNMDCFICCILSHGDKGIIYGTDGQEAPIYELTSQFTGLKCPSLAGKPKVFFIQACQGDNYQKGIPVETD
T1 sequence (Q14790 385-479 limits assumed, species assumed): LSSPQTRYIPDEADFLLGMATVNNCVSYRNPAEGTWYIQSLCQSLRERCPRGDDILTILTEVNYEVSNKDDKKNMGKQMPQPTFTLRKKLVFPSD

B1: Spi2A: murine Spi2A polypeptide, SEQ ID NO:2; purified as C-terminal 3×FLAG protein or expressed from MIGR1 retrovirus in cells and bone-marrow chimeras (protein, listed as Mus musculus)
chain: MAGVSPAVFGCPDVTLGRNTAVREVQENVTSVDSLTLVSSNTDFAFSLYRKLVLKNPDENVVFSPFSICTALALLSLGAKSNTLKEILEGLKFNLTETPEPDIHQGFRYLLDLLSQPGNQVQISTGSALFIEKHLQILAEFKEKARALYQAEAFTADFQQPLKATKLINDYVSNHTQGKIKELISGLKESTLMVLVNYIYFKGKWKNPFDPNDTFKSEFYLDEKRSVIVSMMKTGYLTTPYFRDEELSCTVVELKYTGNASAMFILPDQGRMQQVEASLQPETLRKWKNSLKPRMIHELRLPKFSISTDYSLEHILPELGIREVFSTHADLSAITGTKDLRVSQVVHKAVLDVAEKGTEAAAATGMAGVGCCAVFDFLEIFFNRPFLMIISDTKAHIALFMAKVTNPERSTNFPNGEGASSQRLESKRLCFGDPLCLIGQ
modifications: C-terminal 3xFLAG tag
notes: purified as C-terminal 3×FLAG protein or expressed from MIGR1 retrovirus in cells and bone-marrow chimeras
Q: What does the source list for B1?
A: Inhibition of protease by Spi2A (percentage inhibition) (caspase 8): did not extend to any of the caspases tested; mitochondrial depolarization (RelA^−/− MEFs): virtually abrogated; Cytosolic cathepsin B activity after TNF-α, retrovirally transduced cells (cathepsin B): inhibited the induction
